In paper PMC8244287 (Current Research in Structural Biology, 2021):

Molecular target: the molecule itself
Assay: SDS-PAGE

B1: BbZIP, zinc transporter from Bordetella bronchiseptica, full-length, N-terminal His6 (natural protein, UniProt A0A0H3LM39 1-309, looked up)
chain: MNQPSSLAADLRGAWHAQAQSHPLITLGLAASAAGVVLLLVAGIVNALTGENRVHVGYAVLGGAAGFAATALGALMALGLRAISARTQDAMLGFAAGMMLAASAFSLILPGLDAAGTIVGPGPAAAAVVALGLGLGVLLMLGLDYFTPHEHERTGHQGPEAARVNRVWLFVLTIILHNLPEGMAIGVSFATGDLRIGLPLTSAIAIQDVPEGLAVALALRAVGLPIGRAVLVAVASGLMEPLGALVGVGISSGFALAYPISMGLAAGAMIFVVSHEVIPETHRNGHETTATVGLMAGFALMMFLDTALG
- stoichiometry N: 2
